Test results reported in patent publication US20250339531A1 (FRED HUTCHINSON CANCER CENTER, published 2025).

Columns and labels:
[1] = molecular target: T1, Uncharacterized protein (Fragment) (Homo sapiens); assay: anti-FLAG co-IP LC-MS, exp 4, +Dox +IFNG
T1 construct: also called NA (Homology to TAP2)

[2] = molecular target: T2, Immunoglobulin kappa variable 2-40 (Homo sapiens); assay: anti-FLAG co-IP LC-MS, exp 4, +Dox +IFNG
T2 construct: also called IGKV2-40

[3] = molecular target: T3, Signal transducer and activator of transcription 1-alpha/beta (Homo sapiens, UniProt P42224 2-750); assay: anti-FLAG co-IP LC-MS, exp 4, +Dox +IFNG
T3 construct: also called STAT1
T3 sequence (looked up): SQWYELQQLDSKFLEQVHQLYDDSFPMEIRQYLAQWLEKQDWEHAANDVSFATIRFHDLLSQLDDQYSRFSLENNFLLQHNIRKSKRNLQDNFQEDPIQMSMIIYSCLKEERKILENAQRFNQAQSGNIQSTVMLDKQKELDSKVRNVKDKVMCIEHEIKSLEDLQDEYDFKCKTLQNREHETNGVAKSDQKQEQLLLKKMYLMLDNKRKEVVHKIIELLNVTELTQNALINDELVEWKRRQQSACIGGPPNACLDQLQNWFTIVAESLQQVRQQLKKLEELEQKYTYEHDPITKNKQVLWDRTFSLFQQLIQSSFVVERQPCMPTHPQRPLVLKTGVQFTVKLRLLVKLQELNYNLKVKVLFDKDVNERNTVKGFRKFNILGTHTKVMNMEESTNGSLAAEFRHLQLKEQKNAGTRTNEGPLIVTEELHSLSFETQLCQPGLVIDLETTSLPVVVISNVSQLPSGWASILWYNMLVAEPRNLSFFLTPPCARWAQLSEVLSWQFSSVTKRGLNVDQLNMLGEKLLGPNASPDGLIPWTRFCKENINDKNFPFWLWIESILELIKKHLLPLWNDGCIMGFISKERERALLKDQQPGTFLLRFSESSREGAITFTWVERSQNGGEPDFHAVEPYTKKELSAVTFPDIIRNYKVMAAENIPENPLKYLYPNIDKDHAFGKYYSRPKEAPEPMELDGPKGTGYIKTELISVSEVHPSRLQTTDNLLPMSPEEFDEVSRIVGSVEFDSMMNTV

[4] = molecular target: T4, Proteasome subunit alpha type (Homo sapiens); assay: anti-FLAG co-IP LC-MS, exp 4, +Dox +IFNG
T4 construct: also called PSMA6

[5] = molecular target: T3, Signal transducer and activator of …; assay: anti-FLAG co-IP and western of truncation series in MB135 cells (FIG. 27A)

T2 sequence (A0A087WW87 20-121): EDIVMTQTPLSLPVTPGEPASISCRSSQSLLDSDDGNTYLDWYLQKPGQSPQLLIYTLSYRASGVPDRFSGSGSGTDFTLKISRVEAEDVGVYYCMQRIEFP

B1: i3XFLAG-NLS-CTDaa154-419mL1dL2 (other)
chain: MDYKDHDGDYKDHDIDYKDDDDKPPKRMRREPKKKRKVGRAPAQAGGLCSAAPGGGHPAPSWVAFAHTGAWGTGLPAPHVPCAPGALPQGAFVSQAARAAPALQPSQAAPAEGISQPAPARGDFAYAAPAPPDGALSHPQAPRWPPHPGKSREDRDPQRDGLPGPCAVAQPGPAQAGPQGQGVLAPPTSQGSPWWGWGRGPQVAGAAWEPQAGAAPPPQPAPPDASASARQGQMQGIPAPSQALQEPAPWSALPCGLLAAEAAASPEFLQQAQPLLETEAPGELEASEEAASLEAPLSEEEYRA
notes: also called longCTDmL1dL2; longCTDmL1DL2
Work on B1 yielded a PSMs [1] of 2 PSMs, a PSMs [2] of 1 PSMs and a PSMs [3] of 18 PSMs. For the same binder, the PSMs [4] was 4 PSMs.

B2: iDUX4aa154-271 (other)
chain: GRAPAQAGGLCSAAPGGGHPAPSWVAFAHTGAWGTGLPAPHVPCAPGALPQGAFVSQAARAAPALQPSQAAPAEGISQPAPARGDFAYAAPAPPDGALSHPQAPRWPPHPGKSREDRD
notes: not shown: N-terminal 3×FLAG tag and NLS
B2: no binding [5].
